This note sets out measurements from paper PMC10681739, “High-throughput data and modeling reveal insights into the mechanisms of cooperative DNA-binding by transcription factor proteins”.

B1: Table S2 B row 1455 (dsDNA)
DNA 1: AGTGAGCTTCCTCCTGAGGCCTGAGGCAACCCCAGG
DNA 2: CCTGGGGTTGCCTCAGGCCTCAGGAGGAAGCTCACT
B2: Table S2 B row 2389 (dsDNA)
DNA 1: TCTGCACATCCGAGAAGCCTCCGTGCTTTGCTGCCA
DNA 2: TGGCAGCAAAGCACGGAGGCTTCTCGGATGTGCAGA
B3: Table S2 B row 1484 (dsDNA)
DNA 1: CCCGGAAACTCAACTGCCCACTGCAGCGCCCGCCAT
DNA 2: ATGGCGGGCGCTGCAGTGGGCAGTTGAGTTTCCGGG
B4: Table S2 B row 2753 (dsDNA)
DNA 1: AGTTGCTTCCTAATCCTGCTGAGCCATTAGCCCCAA
DNA 2: TTGGGGCTAATGGCTCAGCAGGATTAGGAAGCAACT
B5: Table S2 B row 2231 (dsDNA)
DNA 1: GCGCCCTCCAGGAAACGCCGCGATTTACTGTCTGCC
DNA 2: GGCAGACAGTAAATCGCGGCGTTTCCTGGAGGGCGC
B6: Table S2 B row 2334 (dsDNA)
DNA 1: CCCCTCGCCCTTCCGCATTGCGTGTTACTTCGGTTG
DNA 2: CAACCGAAGTAACACGCAATGCGGAAGGGCGAGGGG
B7: Table S2 B row 234 (dsDNA)
DNA 1: GGGGGAATGTAGGAAGTATCATCGCCTACAAGAAAG
DNA 2: CTTTCTTGTAGGCGATGATACTTCCTACATTCCCCC
B8: Table S2 B row 3926 (dsDNA)
DNA 1: GCTGTCCGTTTCCGAGATGTTAATGCGAGGTCTTGC
DNA 2: GCAAGACCTCGCATTAACATCTCGGAAACGGACAGC
B9: Table S2 B row 1479 (dsDNA)
DNA 1: CAGATTCCCGGAAAGGGGGACATGTAGCCGCCAAAG
DNA 2: CTTTGGCGGCTACATGTCCCCCTTTCCGGGAATCTG
B10: Table S2 B row 411 (dsDNA)
DNA 1: CGCCCTCCGGAAGAGAGGGCGGACAGCGCCCGCGCC
DNA 2: GGCGCGGGCGCTGTCCGCCCTCTCTTCCGGAGGGCG
B11: Table S2 B row 3361 (dsDNA)
DNA 1: GAACTACGTTTCCCGGCATGCACTGCAGGCCGCCGG
DNA 2: CCGGCGGCCTGCAGTGCATGCCGGGAAACGTAGTTC
B12: Table S2 B row 591 (dsDNA)
DNA 1: CACCTCCTACTTCCCCCCGCTGATAACTACCAACCC
DNA 2: GGGTTGGTAGTTATCAGCGGGGGGAAGTAGGAGGTG
B13: Table S2 B row 3605 (dsDNA)
DNA 1: GGGCTTCCCGGGTACAAAAATGGCTGTCGCTAGCGA
DNA 2: TCGCTAGCGACAGCCATTTTTGTACCCGGGAAGCCC
B14: Table S2 B row 1447 (dsDNA)
DNA 1: GCAGAAGGAAGTGTGGCTTGGCGCCGTGGCTCACAC
DNA 2: GTGTGAGCCACGGCGCCAAGCCACACTTCCTTCTGC
B15: Table S2 B row 1696 (dsDNA)
DNA 1: CTCATCAGTCATCCGGCTGGACTGCAGGAGCTCTCC
DNA 2: GGAGAGCTCCTGCAGTCCAGCCGGATGACTGATGAG
B16: Table S2 B row 4047 (dsDNA)
DNA 1: CCGCTCTTCCTGGAGGTCTCTTGGCCGCTCACCCTC
DNA 2: GAGGGTGAGCGGCCAAGAGACCTCCAGGAAGAGCGG
B17: Table S2 B row 40 (dsDNA)
DNA 1: TTGCGTCATTTCCGAGAGACTTTCGCGCCGCTGTTT
DNA 2: AAACAGCGGCGCGAAAGTCTCTCGGAAATGACGCAA
B18: Table S2 B row 1799 (dsDNA)
DNA 1: AGCGGCCGAAGGAAGTGACGTTTGGGGCAGTAAGGC
DNA 2: GCCTTACTGCCCCAAACGTCACTTCCTTCGGCCGCT
B19: Table S2 B row 3245 (dsDNA)
DNA 1: GCGCCCGGAAGGAAGGCTGGGGTAGGTTGTAGTTTC
DNA 2: GAAACTACAACCTACCCCAGCCTTCCTTCCGGGCGC
B20: Table S2 B row 2956 (dsDNA)
DNA 1: CTCTGAAGGAAGTGATGTTAGACGGCTGTAGGTGGT
DNA 2: ACCACCTACAGCCGTCTAACATCACTTCCTTCAGAG
B21: Table S2 B row 3871 (dsDNA)
DNA 1: CCTGAGAGATCCGGCGCGCGTCTTCCACCAAAATGC
DNA 2: GCATTTTGGTGGAAGACGCGCGCCGGATCTCTCAGG
B22: Table S2 B row 1194 (dsDNA)
DNA 1: TGAGTTTTGTTTCCGATTCACCTCAGAAGATACTTT
DNA 2: AAAGTATCTTCTGAGGTGAATCGGAAACAAAACTCA
B23: Table S2 B row 2446 (dsDNA)
DNA 1: GGAACGGAGGCGGAAGGGGCCCTTCGGCGACGACGT
DNA 2: ACGTCGTCGCCGAAGGGCCCCTTCCGCCTCCGTTCC
B24: Table S2 B row 1508 (dsDNA)
DNA 1: GCTCCCTTCCTGAGCCTCTGCTGGCCTCACCAGAGG
DNA 2: CCTCTGGTGAGGCCAGCAGAGGCTCAGGAAGGGAGC
B25: Table S2 B row 935 (dsDNA)
DNA 1: CAGTGGCAGTAGCCGTTTGGCCCTTCCTGCCCTGGG
DNA 2: CCCAGGGCAGGAAGGGCCAAACGGCTACTGCCACTG
B26: Table S2 B row 713 (dsDNA)
DNA 1: CCCTTCCGCGTGGGTTGCACCTGCTAATCACAGAGC
DNA 2: GCTCTGTGATTAGCAGGTGCAACCCACGCGGAAGGG
B27: Table S2 B row 3719 (dsDNA)
DNA 1: GACCTGGGCAGGAAGAGCGGCATTTGGGGCCCCCTG
DNA 2: CAGGGGGCCCCAAATGCCGCTCTTCCTGCCCAGGTC
B28: Table S2 B row 2233 (dsDNA)
DNA 1: GCGCCATTTCCGCTGCGCAAGGCACCTCAGGCCCTG
DNA 2: CAGGGCCTGAGGTGCCTTGCGCAGCGGAAATGGCGC
B29: Table S2 B row 2289 (dsDNA)
DNA 1: GAGGAAAGGAAGTCAAGGCCAGGGCCGAAGAGGCCA
DNA 2: TGGCCTCTTCGGCCCTGGCCTTGACTTCCTTTCCTC
B30: Table S2 B row 1189 (dsDNA)
DNA 1: TCCAGCGGAAGGGGGCATCTTTACGGCAGAGGCAGC
DNA 2: GCTGCCTCTGCCGTAAAGATGCCCCCTTCCGCTGGA
B31: Table S2 B row 3799 (dsDNA)
DNA 1: GCAAAGATACATCCTTCTCCCCAGAGACTAAGTTTC
DNA 2: GAAACTTAGTCTCTGGGGAGAAGGATGTATCTTTGC
B32: Table S2 B row 1617 (dsDNA)
DNA 1: ACCACCCCCAGAGACAAACTCACATCCTCTCCCTAG
DNA 2: CTAGGGAGAGGATGTGAGTTTGTCTCTGGGGGTGGT
B33: Table S2 B row 1867 (dsDNA)
DNA 1: TCAGGAAGTGGTGTGACCAGCATGTGAACAGCGGCA
DNA 2: TGCCGCTGTTCACATGCTGGTCACACCACTTCCTGA
B34: Table S2 B row 1858 (dsDNA)
DNA 1: TGGCTTCCTGTCTGTCCTTCATCAGCCCAGAGAGGC
DNA 2: GCCTCTCTGGGCTGATGAAGGACAGACAGGAAGCCA
B35: Table S2 B row 1424 (dsDNA)
DNA 1: TGCTTGTCCGGTGGCTGCTGCGCTGCCGAAACGAAT
DNA 2: ATTCGTTTCGGCAGCGCAGCAGCCACCGGACAAGCA
B36: Table S2 B row 2750 (dsDNA)
DNA 1: CTAGTCTGTTTCCTCATCTGCCGCCTGCACGCCCGC
DNA 2: GCGGGCGTGCAGGCGGCAGATGAGGAAACAGACTAG
B37: Table S2 B row 4028 (dsDNA)
DNA 1: GCCTGAAGGACTTCCGGGAACCGAAAAGCACGGTGT
DNA 2: ACACCGTGCTTTTCGGTTCCCGGAAGTCCTTCAGGC
B38: Table S2 B row 3763 (dsDNA)
DNA 1: GCGCCCCGTCCTTCCGCAGCCCAAGCGCCTCTTCCC
DNA 2: GGGAAGAGGCGCTTGGGCTGCGGAAGGACGGGGCGC
B39: Table S2 B row 3244 (dsDNA)
DNA 1: CCCGCTGTCACTTCCTGCTTCCCTCCCGCGCACGTG
DNA 2: CACGTGCGCGGGAGGGAAGCAGGAAGTGACAGCGGG

The data set concerns the target T1, ETS1 (Homo sapiens, UniProt P14921).
T1 sequence: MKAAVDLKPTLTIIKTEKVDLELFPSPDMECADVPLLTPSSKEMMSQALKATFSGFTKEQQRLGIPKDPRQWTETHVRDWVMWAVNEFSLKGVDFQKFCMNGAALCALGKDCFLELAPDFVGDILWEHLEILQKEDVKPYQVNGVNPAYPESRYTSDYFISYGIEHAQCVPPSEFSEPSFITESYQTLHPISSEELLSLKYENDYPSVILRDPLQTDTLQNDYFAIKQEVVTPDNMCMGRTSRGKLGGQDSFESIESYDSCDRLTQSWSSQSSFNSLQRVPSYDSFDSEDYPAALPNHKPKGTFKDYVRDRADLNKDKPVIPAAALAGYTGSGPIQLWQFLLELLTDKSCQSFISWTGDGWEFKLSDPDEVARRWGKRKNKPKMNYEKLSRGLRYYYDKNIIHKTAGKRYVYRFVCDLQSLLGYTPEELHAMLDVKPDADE
Description: gcPBM; 1 nM ETS1. Conditions: tags: N-terminal GST (pDEST15), kept (PMC6008103); label: surface-attached array probe.
On to B1, for which the binding signal is 1620 PBM fluorescence, median of replicate spots.
The value for B2 was 803 PBM fluorescence, median of replicate spots; that for B3 was 830 PBM fluorescence, median of replicate spots; that for B4 was 1170 PBM fluorescence, median of replicate spots.
The value for B5 was 1190 PBM fluorescence, median of replicate spots.
The value for B6 was 1460 PBM fluorescence, median of replicate spots; that for B7 was 948 PBM fluorescence, median of replicate spots; that for B8 was 1060 PBM fluorescence, median of replicate spots.
Regarding B9, the binding signal is 1360 PBM fluorescence, median of replicate spots.
With B10 the figure was 1330 PBM fluorescence, median of replicate spots.
The value for B11 was 787 PBM fluorescence, median of replicate spots; that for B12 was 1740 PBM fluorescence, median of replicate spots; that for B13 was 1230 PBM fluorescence, median of replicate spots.
With B14 the figure was 817 PBM fluorescence, median of replicate spots; with B15, 1700 PBM fluorescence, median of replicate spots.
For the molecule B16, the binding signal was 1540 PBM fluorescence, median of replicate spots.
With B17 the figure was 1300 PBM fluorescence, median of replicate spots; with B18, 1090 PBM fluorescence, median of replicate spots.
With B19 the figure was 1030 PBM fluorescence, median of replicate spots; with B20, 910 PBM fluorescence, median of replicate spots.
The value for B21 was 1260 PBM fluorescence, median of replicate spots; that for B22 was 1570 PBM fluorescence, median of replicate spots; that for B23 was 869 PBM fluorescence, median of replicate spots.
Regarding B24, the binding signal is 849 PBM fluorescence, median of replicate spots.
The value for B25 was 882 PBM fluorescence, median of replicate spots; that for B26 was 1660 PBM fluorescence, median of replicate spots; that for B27 was 1120 PBM fluorescence, median of replicate spots.
With B28 the figure was 18700 PBM fluorescence, median of replicate spots.
With B29 the figure was 1410 PBM fluorescence, median of replicate spots.
For the molecule B30, the binding signal was 1600 PBM fluorescence, median of replicate spots.
For B31, the binding signal is 1150 PBM fluorescence, median of replicate spots.
The value for B32 was 1010 PBM fluorescence, median of replicate spots.
The value for B33 was 936 PBM fluorescence, median of replicate spots.
With B34 the figure was 20600 PBM fluorescence, median of replicate spots.
Take B35: the binding signal is 1420 PBM fluorescence, median of replicate spots.
With B36 the figure was 985 PBM fluorescence, median of replicate spots; with B37, 19300 PBM fluorescence, median of replicate spots.
With B38 the figure was 1510 PBM fluorescence, median of replicate spots; with B39, 19700 PBM fluorescence, median of replicate spots.
